Data as given in article PMC7318607.

Target: GST-OGG1 wt (UniProt O15527 1-345)
Test: EMSA

Sequence of GST-OGG1 wt (O15527 whole entry): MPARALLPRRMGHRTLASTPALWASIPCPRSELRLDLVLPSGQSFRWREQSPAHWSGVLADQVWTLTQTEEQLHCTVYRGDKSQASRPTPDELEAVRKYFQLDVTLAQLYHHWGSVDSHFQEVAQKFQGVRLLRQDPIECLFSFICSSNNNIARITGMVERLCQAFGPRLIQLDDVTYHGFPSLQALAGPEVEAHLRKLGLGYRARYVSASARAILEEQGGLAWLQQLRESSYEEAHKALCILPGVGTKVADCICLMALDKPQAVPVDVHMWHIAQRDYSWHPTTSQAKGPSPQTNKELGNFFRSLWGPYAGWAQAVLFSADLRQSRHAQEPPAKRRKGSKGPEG

Binder | binding result
G2 probe (8-oxoG) (dsDNA, 8-oxoG at position 27 of strand 1 (antisense)) DNA 1: CGATGTCTGGAAAAGCCCGGGGACCAGGGAA DNA 2: TTCCCTGGTCCCCGGGCTTTTCCAGACATCG | binds
Cy5 probe (8-oxoG) (dsDNA, 8-oxoG at position 16 of strand 1) DNA 1: AGAGAAGAAGAAGAAGAGATGGGTTATTCGAACTAGC DNA 2: GCTAGTTCGAATAACCCATCTCTTCTTCTTCTTCTCT | binds
